US9642874B2, “Compositions of selenoorganic compounds and methods of use thereof” (Alltech, Inc., priority 2014, dated 2017)

Legend:
[1] = tested on: primary mouse hepatocytes; experiment: Toxicological study: LDH level in culture media of primary mouse hepatocytes; assay type: cell-based; details: Compounds CDE (150, 300 ppb), insulin (10, 100 nM) or both; 24 hours serum-containing + 6 hours
Method: (§1) The overnight-acclimated hepatocytes were washed twice with PBS (to remove any residual FBS and other additives in the TRL hepatocyte maintenance medium, pretreated with control (water) or selenium Compounds CDE (150 or 300 ppb of each selenium compound) in DMEM/F12 media supplemented with 10% fetal bovine serum (FBS) for 24 hr. These cells were then washed twice with PBS and incubated with the same dose of selenium Compounds CDE (150 or 300 ppb) in the presence or absence of insulin (10 or 100 nM, Sigma), 0.1 mM 8-CPT (Sigma) or 0.5 μM Dex (Sigma) in serum-free and glucose-free DMEM media (Invitrogen) supplemented with 20 mM lactose (Sigma) and 2 mM pyruvate (Sigma) and 15 mM HEPES (Sigma) for another 6 hours. […]
Similar to the above glucose assay, cell culture media from the above described treatments were collected and centrifuged at 300×g for 5 minutes to remove any potential dislodged hepatocytes and subjected to LDH analysis using a […] (Abcam) according to the manufacturer protocol. In brief, the absorbance at OD450 nm in LDH standards and the culture medium samples after incubation with LDH substrates for every two minutes up to 40 minutes were determined by the Bio-Tek microplate reader. […]

PDK1 = experiment: Western blot of pPdk1 in primary mouse hepatocytes; assay type: cell-based; details: 100 nM insulin 6 hours, or Compounds CDE both doses 24 hours + 6 hours
Method: as §1
After the above described treatments, primary mouse hepatocytes were rinsed with ice-cold PBS and lysed in the ice-cold RIPA buffer containing complete proteinase and phosphatase inhibitors (Thermo-Fisher Scientific, Waltham, Mass.) on ice for 30 min Cell lysates were collected using a cell scraper and transfer pipette and then centrifuged at 12000×g for 30 min at 4° C. to remove the DNA pellet and obtain the protein extract. Protein levels in the supernatant of these cell lysates were determined using the Pierce Micro-BCA protein assay kit (Thermo Scientific-Piece Biotechnology, Rockford, Ill.) according to the manufacturer's protocol. […]

insulin: insulin (10 or 100 nM, Sigma) used as comparator and cotreatment
LDH levels in the media [1]: did not cause a significant increase of LDH levels | pPdk1 protein level (in words) (PDK1): significant increase
